Measurements as given in article PMC3575510, “Antibiotic Inducibility of the mexXY Multidrug Efflux Operon of Pseudomonas aeruginosa: Involvement of the MexZ Anti-Repressor ArmZ” (PLoS ONE, 2013).

B1: unnamed (parent)
chain 1: MGNYIKPLSAGVALIASDSTWIEGKAIQQLQTTAELDGMCRVVGLPDLHPGRGYPVGAAFFSVGRFYPALVGNDIGCGMALWETGLALGKLSADKLEKRLGNLDLPLDETWSDCIEALDLPAREHWRALGTIGGGNHFAELQQVETVFDQAALHALGLDADRLQLLVHSGSRGLGQAILQEHVSLHGHAGLLDGSLEASAYLARHADALRFAEGNRQLIARRILERLRCDGLELLDINHNLVVPAQVDGVDGWLHRKGATPADQGVLVIPGSRGDYSYLVEPVPSAQSLFSLAHGAGRKWQRGECRERLAARFSVDQLGRTRLGSRVICGDRQLIYEEAPEAYKGIDSVVGALLEAGLLRLVARLKPVLTYKTRGECCR
chain 2: MARKTKEESQKTRDGILDAAERVFLEKGVGTTAMADLADAAGVSRGAVYGHYKNKIEVCLAMCDRAFGQIEVPDENARVPALDILLRAGMGFLRQCCEPGSVQRVLEILYLKCERSDENEPLLRRRELLEKQGQRFGLRQIRRAVERGELPARLDVELASIYLQSLWDGICGTLAWTERLRDDPWNRAERMFRAGLDSLRSSPYLLLADA

Variants of: B1
Experiment: bacterial 2-hybrid assay (β-galactosidase activity in E. coli SU202)
Conditions: with partner chain of the complex shown; IPTG-induced cells; read off a plot

Variant | response [Miller Units]
chain 1 G231D | 730
chain 1 G76S | 470
chain 1 R221Q | 510
chain 1 R221W | 680
chain 1 R216C | 720
chain 1 P68S | 610
chain 1 G252S | 700
